From article PMC4599966

Experiments:
LC3B (two-hybrid bait) = LC3B (two-hybrid bait) (UniProt Q9GZQ8); test: mammalian 2-hybrid assay; settings: CHOK.1 cells, LC3B as bait, read off a plot
LC3C (two-hybrid bait) = LC3C (two-hybrid bait) (UniProt Q9BXW4); test: mammalian 2-hybrid assay; settings: CHOK.1 cells; LC3C as bait; parent: est. 79; read off a plot
[1] = biological target: TAX1BP1 zinc finger domain (human) (UniProt Q86VP1); test: NMR titration; 1H/15N HSQC of 15N-labelled TAX1BP1 zinc fingers (P0 150 μM) with increasing unlabelled ubiquitin, and the reciprocal titration of 15N-labelled ubiquitin; PBS, 10 mM β-mercaptoethanol, 20°C; shift changes of peaks of each zinc finger fitted to a single site-binding model

Chain of UniProt Q9BXW4 (Q9BXW4 whole entry, the tested form may be a part): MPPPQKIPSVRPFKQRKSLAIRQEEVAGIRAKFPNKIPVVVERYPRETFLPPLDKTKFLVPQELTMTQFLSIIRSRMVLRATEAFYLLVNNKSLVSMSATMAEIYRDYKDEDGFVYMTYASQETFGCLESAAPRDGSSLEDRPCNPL

Substance: TAX1BP1 full-length wild-type (two-hybrid prey) (from UniProt Q86VP1) V144S
- response (LC3B (two-hybrid bait); parent: est. 85): 20
- response (LC3B (two-hybrid bait); parent: est. 98): 27
- response (LC3C (two-hybrid bait)): 34

Substance: mono-ubiquitin (from UniProt P0CG48 1-76) (natural protein)
- KD, site ZF1 (N-terminal module) [1]: 70 µM
- KD, site ZF2 (C-terminal module) [1]: 7 µM
